Values of other authors in publication PMC3518592.

Target: ubiquitin (UniProt P0CG48)

Vps9 CUE, sequence (P54787 405-451): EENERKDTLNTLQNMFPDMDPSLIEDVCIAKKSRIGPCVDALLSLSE

Kd: 20 µM
Substance: Vps9 CUE (from UniProt P54787)
